Assay results published in patent US20230340081A1 (Hoffmann-La Roche, published 2023).

How the values were obtained:
[1] = target: HBV genotype D viruses (produced in HepG2.2.15 cell culture supernatant) (hepatitis B virus genotype D); experiment: cell-based or functional assay
[2] = target: T1, Adw S-HBs protein (adw HBsAg particles, GenHevac (Adw)) (hepatitis B virus, adw subtype); experiment: ELISA, AUC of binding curve; parameters: unit not given beside the values
T1 construct: also called GenHevac-B

[3] = target: T2, Ayw S-HBs protein (ayw HBsAg particles, Engerix-B (Ayw)) (hepatitis B virus, ayw subtype); experiment: ELISA, AUC of binding curve; parameters: unit not given beside the values
[4] = target: T1, Adw S-HBs protein (adw HBsAg particles, …); experiment: ELISA on recombinant HBV vaccine particles
[5] = target: T2, Ayw S-HBs protein (ayw HBsAg particles, …); experiment: ELISA on recombinant HBV vaccine particles
[6] = target: T3, consensus S-HBs protein of HBV genotype A (ConsHBAg_A) (hepatitis B virus genotype A (consensus), UniProt P03141 175-400); experiment: flow cytometry, S-HBs-transfected 293-F cells
T3 construct: also called genotype A S-HBs

[7] = target: T4, consensus S-HBs protein of HBV genotype B (ConsHBAg_B) (hepatitis B virus genotype B (consensus), UniProt Q9PWW3 175-400); experiment: flow cytometry, S-HBs-transfected 293-F cells
T4 construct: also called genotype B S-HBs

[8] = target: T5, consensus S-HBs protein of HBV genotype C (ConsHBAg_C) (hepatitis B virus genotype C (consensus), UniProt P03140 175-400); experiment: flow cytometry, S-HBs-transfected 293-F cells
T5 construct: also called genotype C S-HBs

[9] = target: T6, consensus S-HBs protein of HBV genotype D (ConsHBAg_D) (hepatitis B virus genotype D (consensus), UniProt P03138 164-389); experiment: flow cytometry, S-HBs-transfected 293-F cells
T6 construct: also called genotype D S-HBs; ConsD S-HBs

[10] = target: T7, consensus S-HBs protein of HBV genotype E (ConsHBAg_E) (hepatitis B virus genotype E (consensus), UniProt Q69603 174-399); experiment: flow cytometry, S-HBs-transfected 293-F cells
T7 construct: also called genotype E S-HBs
T7 chain: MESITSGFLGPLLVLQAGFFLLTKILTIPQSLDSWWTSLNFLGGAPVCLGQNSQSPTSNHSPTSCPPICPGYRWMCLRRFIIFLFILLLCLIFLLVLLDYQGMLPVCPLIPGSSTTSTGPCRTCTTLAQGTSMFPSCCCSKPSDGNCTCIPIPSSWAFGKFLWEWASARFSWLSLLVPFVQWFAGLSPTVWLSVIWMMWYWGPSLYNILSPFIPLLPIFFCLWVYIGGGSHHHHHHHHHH

[11] = target: T8, consensus S-HBs protein of HBV genotype F (ConsHBAg_F) (hepatitis B virus genotype F (consensus), UniProt Q05496 175-400); experiment: flow cytometry, S-HBs-transfected 293-F cells
T8 construct: also called genotype F S-HBs
T8 sequence (Q05496 175-400, tags left off): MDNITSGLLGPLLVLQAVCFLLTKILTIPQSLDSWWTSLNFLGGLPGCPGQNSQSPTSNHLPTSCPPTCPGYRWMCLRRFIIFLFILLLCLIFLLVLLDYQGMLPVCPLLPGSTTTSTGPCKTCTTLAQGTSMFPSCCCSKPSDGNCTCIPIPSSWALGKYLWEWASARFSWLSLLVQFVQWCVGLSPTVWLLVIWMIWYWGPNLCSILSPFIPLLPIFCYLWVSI

[12] = target: T9, consensus S-HBs protein of HBV genotype G (ConsHBAg_G) (hepatitis B virus genotype G (consensus), UniProt Q9IBI3 174-399); experiment: flow cytometry, S-HBs-transfected 293-F cells
T9 construct: also called genotype G S-HBs

[13] = target: T10, consensus S-HBs protein of HBV genotype H (ConsHBAg_H) (hepatitis B virus genotype H (consensus), UniProt Q8JMZ6 175-400); experiment: flow cytometry, S-HBs-transfected 293-F cells
T10 construct: also called genotype H S-HBs
T10 sequence (Q8JMZ6 175-400, tags left off): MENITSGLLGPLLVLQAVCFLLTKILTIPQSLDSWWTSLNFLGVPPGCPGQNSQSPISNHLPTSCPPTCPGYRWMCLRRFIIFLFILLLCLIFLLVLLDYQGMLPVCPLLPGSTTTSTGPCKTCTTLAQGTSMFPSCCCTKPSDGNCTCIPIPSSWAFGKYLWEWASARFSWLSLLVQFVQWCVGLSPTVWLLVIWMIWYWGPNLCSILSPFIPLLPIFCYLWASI

[14] = target: T11, consensus S-HBs protein of HBV genotype I (ConsHBAg_I) (hepatitis B virus genotype I (consensus), UniProt P31873 175-400); experiment: flow cytometry, S-HBs-transfected 293-F cells
T11 construct: also called genotype I S-HBs
T11 chain: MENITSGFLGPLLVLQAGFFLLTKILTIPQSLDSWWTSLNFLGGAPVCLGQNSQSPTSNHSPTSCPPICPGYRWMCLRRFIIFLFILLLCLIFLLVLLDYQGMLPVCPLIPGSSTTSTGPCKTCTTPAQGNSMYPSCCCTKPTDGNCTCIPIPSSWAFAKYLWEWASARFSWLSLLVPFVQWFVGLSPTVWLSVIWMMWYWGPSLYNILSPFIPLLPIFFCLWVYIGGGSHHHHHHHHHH

[15] = target: genotype D S-HBs mutant protein T126A (hepatitis B virus genotype D, UniProt P03138 164-389); experiment: flow cytometry, S-HBs-transfected 293-F cells
[16] = target: genotype D S-HBs mutant protein M133T (hepatitis B virus genotype D, UniProt P03138 164-389); experiment: flow cytometry, S-HBs-transfected 293-F cells
[17] = target: genotype D S-HBs mutant protein Y134V (hepatitis B virus genotype D, UniProt P03138 164-389); experiment: flow cytometry, S-HBs-transfected 293-F cells
[18] = target: genotype D S-HBs mutant protein G145R (hepatitis B virus genotype D, UniProt P03138 164-389); experiment: flow cytometry, S-HBs-transfected 293-F cells
[19] = target: genotype D S-HBs mutant protein N146S (hepatitis B virus genotype D, UniProt P03138 164-389); experiment: flow cytometry, S-HBs-transfected 293-F cells
[20] = target: T8, consensus S-HBs protein of HBV genotype …; experiment: flow cytometry on cells expressing genotype-specific S-HBs
[21] = target: T10, consensus S-HBs protein of HBV genotype …; experiment: as above
[22] = target: T3, consensus S-HBs protein of HBV genotype …; experiment: as above
[23] = target: T4, consensus S-HBs protein of HBV genotype …; experiment: as above
[24] = target: T5, consensus S-HBs protein of HBV genotype …; experiment: as above
[25] = target: T9, consensus S-HBs protein of HBV genotype …; experiment: as above
[26] = target: T11, consensus S-HBs protein of HBV genotype …; experiment: as above

Binder | HBV-gD in vitro neutralization (IC50 µg/ml) [1] [µg/mL] | AUC (serotype binding) [2] | AUC (serotype binding) [3] | EC50 [4] [ng/mL] | EC50 [5] [ng/mL] | % of bound S-HBs-expressing cells [6] [%] | % of bound S-HBs-expressing cells [7] [%] | % of bound S-HBs-expressing cells [8] [%] | % of bound S-HBs-expressing cells [9] [%] | % of bound S-HBs-expressing cells [10] [%] | % of bound S-HBs-expressing cells [11] [%] | % of bound S-HBs-expressing cells [12] [%] | % of bound S-HBs-expressing cells [13] [%] | % of bound S-HBs-expressing cells [14] [%] | % of bound S-HBs-expressing cells [15] [%] | % of bound S-HBs-expressing cells [16] [%] | % of bound S-HBs-expressing cells [17] [%] | % of bound S-HBs-expressing cells [18] [%] | % of bound S-HBs-expressing cells [19] [%] | binding result [20] | other results
Bc3.106 (antibody) heavy: not shown light: DIQMTQSPSSLSASVGDRVTITCRASQGIRNDLGWYQQKPGKAPKRLIYAASSLQSGVPSRFSGSGSGTEFTLTISSLQPEDFATYYCLQHNSYPRTFGQGTKVEIKRTVAAPSVFIFPPSDEQLKSGTASVVCLLNNFYPREAKVQWKVDNALQSGNSQESVTEQDSKDSTYSLSSTLTLSKADYEKHKVYACEVTHQGLSSPVTKSFNRGEC | 1.39e-07 | 36 | 37 | 42.1 | 19.3 | 70 | 55 | 83 | 62 | 59 | 55 | 65 | 59 | 53 | 71 | 66 | 69 | 67 | 63 |  | 
Bc1.180 (antibody) heavy: not shown light: EIVLTQSPGTLSLSPGNRATLSCRASQSVTSNYFAWYQHKPGQAPRVLIYGASSRATGIPDRFSGSGSGTDFTLTISRLEPEDFAVYYCQQFGSLPYTFGQGTKLEIKRTVAAPSVFIFPPSDEQLKSGTASVVCLLNNFYPREAKVQWKVDNALQSGNSQESVTEQDSKDSTYSLSSTLTLSKADYEKHKVYACEVTHQGLSSPVTKSFNRGEC | 5e-08 | 30 | 23 | 65.3 | 310 | 57 | 45 | 43 | 47 | 46 | 42 | 39 | 55 | 22 | 38 | 25 | 25 | 14 | 27 |  | 
Bc4.204 (antibody, human IgG1, lambda) heavy: not shown light: QSALTQPRSVSGSPGQSVTISCIGTNSDFGRYDYVSWYQQHPDKAPKLLIYDVSQRPSGVPDRFSGSKSGYTASLIISGLQADDEAEYFCCSYAGSFNLVFGGGTKVTVLGQPKAAPSVTLFPPSSEELQANKATLVCLISDFYPGAVTVAWKADSSPVKAGVETTTPSKQSNNKYAASSYLSLTPEQWKSHRSYSCQVTHEGSTVEKTVAPTECS | 0.000229 | 36 | 36 | 15.6 | 15 | 74 | 65 | 65 | 68 | 65 | 0 | 71 | 1 | 58 | 60 | 59 | 57 | 55 | 53 | no binding | binding result [21]: no binding
Bv4.104 (antibody, also called PIBv4.104) heavy: not shown light: QSALTQPASVSGSPGQSITISCTGTSSDVGNYKSVSWYQHHPGKAPKFMIYEGTQRPSGVSNRFSGSKSGNTASLTISGLQAEDEAHYYCCSYAGSSTWLFGGGTKLTVLGQPKAAPSVTLFPPSSEELQANKATLVCLISDFYPGAVTVAWKADSSPVKAGVETTTPSKQSNNKYAASSYLSLTPEQWKSHRSYSCQVTHEGSTVEKTVAPTECS |  | 7 | 37 | 6580 | 4.6 | 1 | 1 | 5 | 73 | 73 | 1 | 1 | 1 | 1 | 64 | 64 | 60 | 54 | 63 | no binding | binding result [22]: no binding; binding result [23]: no binding; binding result [24]: no binding; binding result [25]: no binding; binding result [21]: no binding; binding result [26]: no binding
